Measured values as given in publication PMC7744796, “Prolyl isomerization controls activation kinetics of a cyclic nucleotide-gated ion channel” (Nature Communications, 2020).
Where “and” joins values, the source holds several entries; their conditions need not be identical. Equal entries are not always repeated.

Experiments:
SthK P300A = assay: Stopped-flow Tl+ flux assay, SthK P300A in proteo-liposomes; assay type: biochemical, Spirochaeta thermophila; settings: SthK P300A + SlyD; for averaged rate: mean of normalized rates; for normalized rate: single replicates
Source text: (§1) In all cyclic nucleotide-gated channels the connection between the C-linker and the CNBD is formed by a helix-loop-helix motif called the siphon. […] This proline had not been previously implicated in prolyl isomerization in HCN channels or SthK. Due to steric restrictions and the lack of an amide-proton, prolines are only rarely found at the C-termini of α-helices[20],[21]. To test whether this unusual proline (Pro300, Fig. 1a, b) plays a role in channel activation, we employed a fluorescence-based stopped-flow assay to measure activation kinetics of a SthK mutant where the proline was substituted by an alanine.
(§2) All stopped-flow experiments were performed at 25 °C using a SX.20 sequential mixing fluorescence spectrophotometer (Applied Photophysics, Leatherhead, UK) controlled using ProDataSX as described before. In order to prepare liposomes for the Tl^+ flux assays 15 mg of DOPC:POPG:Cardiolipin (5:3:2, w/w/w) in chloroform were dried to a thin film in glass tubes under constant N2 flow and further dried under vacuum overnight. […] The sample was incubated at 21 °C under constant agitation for 3 h, the supernatant was transferred to a new glass tube and stored at 13 °C overnight. […] The liposome solution was diluted 5-times in sample buffer right before the experiments to ensure a good signal-to-noise ratio.
(§3) For the time course of activation in the presence of PPIases 2 µM of enzyme were added to the liposome solution and incubated for at least 10 min before the experiment yielding 1 µM of enzyme in the aging loop (after the first mixing event).
(§4) During one experiment, at least seven technical repeats were performed for each data point, every repeat was visually inspected for its quality, mixing artifacts were sorted out and the remaining repeats (typically 6–7 technical repeats) were analyzed separately in Matlab using a stretched exponential function (Eq. (2)) and the rate of Tl^+ influx into liposomes was calculated at 2 ms according to Eq. (3). 5000 data points were recorded over 1 s, however, to obtain the initial rate of Tl^+ influx only the first 100 ms were analyzed. The use of a stretched exponential function is necessary since the sizes of the liposomes vary and different amounts of channel proteins can be incorporated in different liposomes.2 Ft=F∞+F0−F∞⋅e^−t/τ^β 3 kt=β/τ⋅0.002s/τ^β−1 with Ft, F∞, F0 being the fluorescence at time t, the final fluorescence and the initial fluorescence, respectively. t is the time (in s), τ the time constant (in s) and β the stretched exponential factor. kt is the calculated rate (in s^−1) of Tl^+ influx at 2 ms.
(§5) The calculated rates kt were then averaged and the standard deviation (S.D.) was determined. Each experiment was independently repeated at least three times, the obtained rate constants were normalized, averaged and the S.D. was determined.
(§6) All further analysis was performed in GraFit. For the time course of channel activation, the rates were plotted as a function of the delay time in the first mixing step and fitted according to a double exponential.

Abz-Ala-Leu-Pro-Phe-pNA = assay: Peptide-based isomerization assay, PPIase activity, Leu substrate; assay type: biochemical
Protocol: (§7) To determine the activity of PPIases, peptides with either Leu or Glu preceding the Pro were used. Buffer and the desired concentration of PPIase were mixed in a QS quartz cuvette (Hellma Analytics) and incubated for 2 min under constant stirring. Peptide was added and the fluorescence increase was monitored.

Abz-Ala-Glu-Pro-Phe-pNA = assay: Peptide-based isomerization assay, PPIase activity, Glu substrate; assay type: biochemical
Protocol: as §7

WT SthK = assay: Stopped-flow Tl+ flux assay, WT SthK in proteo-liposomes; assay type: biochemical, Spirochaeta thermophila; parameters: key to averaged rate: normalized Tl+ influx rate at 2 ms (unitless, relative)
Source text: as §1, §2, §3, §4, §5, §6

[1] = 1 µM PPIase, 100 µM cAMP, delay time 0.012 s
[2] = 1 µM PPIase, 100 µM cAMP, delay time 0.050 s
[3] = 1 µM PPIase, 100 µM cAMP, delay time 0.100 s
[4] = 1 µM PPIase, 100 µM cAMP, delay time 0.500 s
[5] = 1 µM PPIase, 100 µM cAMP, delay time 1.000 s
[6] = 1 µM PPIase, 100 µM cAMP, delay time 2.500 s
[7] = 1 µM PPIase, 100 µM cAMP, delay time 5.000 s
[8] = 1 µM PPIase, 100 µM cAMP, delay time 10.000 s
[9] = [PPIase] 10 pM, 12 ms with 100 µM cAMP
[10] = [PPIase] 100 pM, 12 ms with 100 µM cAMP
[11] = [PPIase] 1e-8 M, 12 ms with 100 µM cAMP
[12] = [PPIase] 1e-7 M, 12 ms with 100 µM cAMP
[13] = [PPIase] 1e-6 M, 12 ms with 100 µM cAMP
[14] = [PPIase] 1e-5 M, 12 ms with 100 µM cAMP

B1: SlyD: bacterial FKBP-type isomerase (UniProt P0A9K9, residues 1–165) (protein, UniProt P0A9K9 1-165, looked up, fragment)
chain: MKVAKDLVVSLAYQVRTEDGVLVDESPVSAPLDYLHGHGSLISGLETALEGHEVGDKFDVAVGANDAYGQYDENLVQRVPKDVFMGVDELQVGMRFLAETDQGPVPVEITAVEDDHVVVDGNHMLAGQNLKFNVEVVAIREATEEELAHGHVHGAHDHHHDHDHD
For B1, the averaged rate (SthK P300A; delay time 0.010 s) was 1.007, the normalized rate (SthK P300A; delay time 0.010 s) was 1.011 and 0.947 and the averaged rate (SthK P300A; delay time 0.025 s) was 0.973. For the same molecule, the normalized rate (SthK P300A; delay time 0.025 s) was 0.800, the averaged rate (SthK P300A; delay time 0.050 s) was 0.981 and the normalized rate (SthK P300A; delay time 0.050 s) was 0.892 and 1.105. The averaged rate (SthK P300A; delay time 0.100 s) was 0.894, the normalized rate (SthK P300A; delay time 0.100 s) was 1.000 and 0.795 and 0.887 and the averaged rate (SthK P300A; delay time 0.250 s) was 1.060. The normalized rate (SthK P300A; delay time 0.250 s) was 1.026 and 1.272 and 0.881, the averaged rate (SthK P300A; delay time 0.500 s) was 1.153 and the normalized rate (SthK P300A; delay time 0.500 s) was 1.146 and 1.160. It also gave an averaged rate (SthK P300A; delay time 1.000 s) of 1.068, a normalized rate (SthK P300A; delay time 1.000 s) of 1.172 and an averaged rate (SthK P300A; delay time 2.500 s) of 1.001. The normalized rate (SthK P300A; delay time 2.500 s) was 1.067 and 1.000, the averaged rate (SthK P300A; delay time 5.000 s) was 0.966 and the normalized rate (SthK P300A; delay time 5.000 s) was 1.000 and 0.922. The averaged rate (SthK P300A; delay time 10.000 s) was 0.867, the normalized rate (SthK P300A; delay time 10.000 s) was 0.930 and 0.866 and 0.804 and the apparent rate (Abz-Ala-Leu-Pro-Phe-pNA; KCl, LPF substrate, 2 nM enzyme) was 0.041 s⁻¹ and 0.044 s⁻¹ and 0.045 s⁻¹. The apparent rate (Abz-Ala-Leu-Pro-Phe-pNA; KCl, LPF substrate, 5 nM enzyme) was 0.051 s⁻¹ and 0.061 s⁻¹ and 0.048 s⁻¹, the apparent rate (Abz-Ala-Leu-Pro-Phe-pNA; KCl, LPF substrate, 10 nM enzyme) was 0.068 s⁻¹ and 0.054 s⁻¹ and 0.069 s⁻¹ and the apparent rate (Abz-Ala-Leu-Pro-Phe-pNA; KCl, LPF substrate, 15 nM enzyme) was 0.053 s⁻¹ and 0.072 s⁻¹ and 0.063 s⁻¹. For the same molecule, the apparent rate (Abz-Ala-Leu-Pro-Phe-pNA; KNO3, LPF substrate, 2 nM enzyme) was 0.049 s⁻¹ and 0.043 s⁻¹ and 0.048 s⁻¹, the apparent rate (Abz-Ala-Leu-Pro-Phe-pNA; KNO3, LPF substrate, 5 nM enzyme) was 0.062 s⁻¹ and 0.056 s⁻¹ and 0.074 s⁻¹ and the apparent rate (Abz-Ala-Leu-Pro-Phe-pNA; KNO3, LPF substrate, 10 nM enzyme) was 0.072 s⁻¹ and 0.045 s⁻¹. The apparent rate (Abz-Ala-Leu-Pro-Phe-pNA; KNO3, LPF substrate, 15 nM enzyme) was 0.062 s⁻¹ and 0.069 s⁻¹ and 0.077 s⁻¹, the apparent rate (Abz-Ala-Glu-Pro-Phe-pNA; KCl, EPF substrate, 2 nM enzyme) was 0.026 s⁻¹ and 0.024 s⁻¹ and the apparent rate (Abz-Ala-Glu-Pro-Phe-pNA; KCl, EPF substrate, 5 nM enzyme) was 0.025 s⁻¹ and 0.026 s⁻¹. For the same molecule, the apparent rate (Abz-Ala-Glu-Pro-Phe-pNA; KCl, EPF substrate, 10 nM enzyme) was 0.024 s⁻¹ and 0.025 s⁻¹, the apparent rate (Abz-Ala-Glu-Pro-Phe-pNA; KCl, EPF substrate, 15 nM enzyme) was 0.025 s⁻¹ and 0.024 s⁻¹ and the apparent rate (Abz-Ala-Glu-Pro-Phe-pNA; KNO3, EPF substrate, 2 nM enzyme) was 0.023 s⁻¹ and 0.027 s⁻¹. For the same molecule, the apparent rate (Abz-Ala-Glu-Pro-Phe-pNA; KNO3, EPF substrate, 5 nM enzyme) was 0.024 s⁻¹ and 0.029 s⁻¹ and 0.027 s⁻¹, the apparent rate (Abz-Ala-Glu-Pro-Phe-pNA; KNO3, EPF substrate, 10 nM enzyme) was 0.028 s⁻¹ and 0.024 s⁻¹ and 0.026 s⁻¹ and the apparent rate (Abz-Ala-Glu-Pro-Phe-pNA; KNO3, EPF substrate, 15 nM enzyme) was 0.024 s⁻¹ and 0.027 s⁻¹. The averaged rate (WT SthK; [1]) was 1.130, the normalized rate (WT SthK; [1]) was 0.993 and 1.357 and 1.239 and 1.025 and 1.202 and 0.960 and the averaged rate (WT SthK; [2]) was 1.035. The normalized rate (WT SthK; [2]) was 1.008 and 0.974 and 1.215 and 1.144 and 1.115 and 0.926 and 0.860, the averaged rate (WT SthK; [3]) was 0.965 and the normalized rate (WT SthK; [3]) was 0.986 and 0.930 and 0.972 and 1.038 and 1.181 and 0.964 and 0.683. The normalized rate (WT SthK; 1 µM PPIase, 100 µM cAMP, delay time 0.250 s) was 0.815 and 0.934 and 1.134 and 1.296 and 1.074 and 0.872, the averaged rate (WT SthK; [4]) was 0.978 and the normalized rate (WT SthK; [4]) was 0.911 and 0.879 and 0.973 and 1.305 and 0.757 and 1.021 and 1.000. The averaged rate (WT SthK; [5]) was 0.917, the normalized rate (WT SthK; [5]) was 0.846 and 1.000 and 0.945 and 0.918 and 0.791 and 0.664 and the averaged rate (WT SthK; [6]) was 0.942. The normalized rate (WT SthK; [6]) was 0.974 and 0.975 and 0.900 and 0.886 and 0.933 and 1.068, the averaged rate (WT SthK; [7]) was 1.014 and the normalized rate (WT SthK; [7]) was 0.948 and 0.912 and 0.942 and 1.000 and 1.421 and 0.879. For the same molecule, the averaged rate (WT SthK; [8]) was 0.922, the normalized rate (WT SthK; [8]) was 1.000 and 0.963 and 0.916 and 0.966 and 0.900 and 0.827 and 0.883 and the “effect on SthK activation (slow activation phase)” value (WT SthK; 1 µM protein, 100 µM cAMP) was “abolished”. The EC50 (WT SthK; PPIase concentration dependence of normalized Tl+ flux rate, 12 ms incubation with 100 µM cAMP) was ~30 nM, the averaged rate (WT SthK; [9]) was 0.622 and the normalized rate (WT SthK; [9]) was 0.592 and 0.562 and 0.636 and 0.697. For the same molecule, the averaged rate (WT SthK; [10]) was 0.685, the normalized rate (WT SthK; [10]) was 0.710 and 0.760 and 0.585 and the normalized rate (WT SthK; [PPIase] 1e-9 M, 12 ms with 100 µM cAMP) was 0.755 and 0.566 and 0.775 and 0.750. The averaged rate (WT SthK; [11]) was 0.814, the normalized rate (WT SthK; [11]) was 0.965 and 0.565 and 0.822 and 0.905 and the averaged rate (WT SthK; [12]) was 0.961. For the same molecule, the normalized rate (WT SthK; [12]) was 1.083 and 0.844 and 0.962 and 0.956, the averaged rate (WT SthK; [13]) was 0.999 and the normalized rate (WT SthK; [13]) was 1.000 and 0.992 and 1.006. It also gave an averaged rate (WT SthK; [14]) of 1.000 and a normalized rate (WT SthK; [14]) of 1.000.
